Results on two substances are retold here after US20020168363A1, “Integrin/adhesion antagonists” (Amgen Inc., priority 2000, published 2002).

One test concerns the target T1, human αvβ3 (Homo sapiens, UniProt P05106+P06756).
T1 construct: tissue Chemicon International Inc. (alternative source, catalogue number not given); host or cells: placenta
Description: Solid phase binding assay (Vitronectin-Ru, integrin coated paramagnetic beads). The following applies: FIGS. 4A and 4B. As to the method: (§1) Ruthenylation of Vitronectin and Fibrinogen. Purified human vitronectin or purified human fibrinogen (Calbiochem) was dialyzed into 50 mM borate, 100 mM NaCl pH 8.0. A stock solution of ruthenium (II) tris bipyridine N-hydroxysuccinimide ester (Origen TAG® Ester, Igen Inc. Gaithersburg, Md.) was freshly prepared by adding 50 μL DMSO to 150 μg of the Origen TAG-NHS ester. Fifty microliters of the Origen TAG-NHS ester was added to one fifth molar ratio of the matrix protein. After one hour incubation at […], the reaction was quench by the addition of 50 μL of 2 M glycine. Unincorporated ruthenium and excess glycine were removed by dialysis into PBS, 0.05% NaN3. Protein concentrations were determined using Micro-BCA (Pierce, Rockford, Ill.). Origen TAG incorporation was assessed at 455 nm (e=13,700 M^−1 cm^−1). Vitronectin-Ru and Fibrinogen-Ru were stored at −70° C. until needed. […]
(§2) Solid Phase Binding Assay. […] The assay mixture was incubated at 25° C. for two hours with agitation and subsequently read on an Origen Analyzer® (Igen Inc. Gaithersburg, Md.) Non-specific binding was determined using 1 μM Vitronectin, 1 μM Fibrinogen or 5 mM EDTA. The data was prepared using a four-parameter fit by the Levenburg Marquardt algorithm (XLfit® ID Business Solutions.) Ki values were calculated using the equation of Cheng and Prusoff (1973) Biochem. Pharmacology 22: 3099-3108.

The next test has as its target T2, GPIIb/IIIa (Homo sapiens, UniProt P05106+P08514).
T2 construct: The washed platelets were lysed in, 20 mM Tris-HCl pH 7.4, 140 mM NaCl, 2 mM CaCl2, 1 mM pefabloc, 3% octylglucoside; from tissue; host or cells: outdated platelets
Briefly: Inhibition of ruthenium-labeled human fibrinogen (fibrinogen-ru) binding to GPIIb/IIIa, solid phase binding assay. The following applies: FIGS. 5A and 5B. The protocol: as §1, §2

In a further test the test system is HT1080 cells. Description: Effect on the growth of HT1080 cells. The class given is cell-based, human. The protocol: Laminin activity assay: Apoptosis of HT-1080 human fibrosarcoma cells. HT-1080 cells from a human fibrosarcoma are cultured in DMEM supplemented with 10% fetal bovine serum, 100 μg/ml streptomycin and 100 units/ml penicillin. The culture is started at a density of 5×10^4 cells per plate. The Fc-peptides (Fc-YIGSR, Fc-(YIGSR)2, YIGSR-Fc, or (YIGSR)2-Fc)) at various concentrations are added to each plate, and after 16 hours the cells are harvested for evaluation of apoptosis with crystal violet solution at 560 nm absorbance. The DNA fragmentation analysis is also carried out to assess the degree of apoptosis in a 1.5% agarose gel and visualized by ethidium bromide staining.
Two additional laminin peptides, (YIGSR)3 and (YIGSR)5 from Table 6 herein, were fused to human IgG1. Those fusion peptides were designated as laminin-3 ((YIGSR)3-Fc) and laminin-5 ((YIGSR)5-Fc). The purified peptide-Fc fusions were examined for their effect on the growth of HT1080 cells as described in Example 1. […] A 50-fold enhancement was seen after it was fused to human IgG1.

T1 sequence (P06756 31-889 limits assumed): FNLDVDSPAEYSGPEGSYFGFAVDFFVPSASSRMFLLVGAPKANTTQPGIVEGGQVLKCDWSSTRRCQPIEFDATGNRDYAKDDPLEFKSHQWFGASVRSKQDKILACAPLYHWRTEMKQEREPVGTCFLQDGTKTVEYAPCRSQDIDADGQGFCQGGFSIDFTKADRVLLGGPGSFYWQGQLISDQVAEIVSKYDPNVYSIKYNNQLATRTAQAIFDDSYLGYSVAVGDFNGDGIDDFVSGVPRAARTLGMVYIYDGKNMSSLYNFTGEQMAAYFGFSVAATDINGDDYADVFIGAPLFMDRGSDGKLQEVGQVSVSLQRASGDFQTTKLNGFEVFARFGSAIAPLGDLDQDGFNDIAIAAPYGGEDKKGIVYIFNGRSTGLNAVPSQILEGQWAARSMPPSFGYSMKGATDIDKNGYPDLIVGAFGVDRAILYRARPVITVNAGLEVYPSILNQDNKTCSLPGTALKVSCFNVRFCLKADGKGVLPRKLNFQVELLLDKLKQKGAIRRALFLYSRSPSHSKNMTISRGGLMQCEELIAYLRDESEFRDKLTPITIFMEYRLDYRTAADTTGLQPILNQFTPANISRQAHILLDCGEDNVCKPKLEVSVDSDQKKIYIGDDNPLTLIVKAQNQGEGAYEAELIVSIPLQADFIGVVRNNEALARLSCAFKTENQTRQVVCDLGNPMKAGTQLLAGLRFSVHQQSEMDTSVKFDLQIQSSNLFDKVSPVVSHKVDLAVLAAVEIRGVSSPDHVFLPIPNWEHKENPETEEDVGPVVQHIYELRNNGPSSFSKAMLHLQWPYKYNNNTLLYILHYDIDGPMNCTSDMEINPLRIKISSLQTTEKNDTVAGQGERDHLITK
T1 sequence (P06756 891-1048 partner limits assumed): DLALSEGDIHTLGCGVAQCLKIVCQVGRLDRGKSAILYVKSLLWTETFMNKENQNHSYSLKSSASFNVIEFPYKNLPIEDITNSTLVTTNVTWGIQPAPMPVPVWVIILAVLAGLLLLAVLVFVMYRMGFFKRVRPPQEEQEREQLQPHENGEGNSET
T1 sequence (P05106 27-788): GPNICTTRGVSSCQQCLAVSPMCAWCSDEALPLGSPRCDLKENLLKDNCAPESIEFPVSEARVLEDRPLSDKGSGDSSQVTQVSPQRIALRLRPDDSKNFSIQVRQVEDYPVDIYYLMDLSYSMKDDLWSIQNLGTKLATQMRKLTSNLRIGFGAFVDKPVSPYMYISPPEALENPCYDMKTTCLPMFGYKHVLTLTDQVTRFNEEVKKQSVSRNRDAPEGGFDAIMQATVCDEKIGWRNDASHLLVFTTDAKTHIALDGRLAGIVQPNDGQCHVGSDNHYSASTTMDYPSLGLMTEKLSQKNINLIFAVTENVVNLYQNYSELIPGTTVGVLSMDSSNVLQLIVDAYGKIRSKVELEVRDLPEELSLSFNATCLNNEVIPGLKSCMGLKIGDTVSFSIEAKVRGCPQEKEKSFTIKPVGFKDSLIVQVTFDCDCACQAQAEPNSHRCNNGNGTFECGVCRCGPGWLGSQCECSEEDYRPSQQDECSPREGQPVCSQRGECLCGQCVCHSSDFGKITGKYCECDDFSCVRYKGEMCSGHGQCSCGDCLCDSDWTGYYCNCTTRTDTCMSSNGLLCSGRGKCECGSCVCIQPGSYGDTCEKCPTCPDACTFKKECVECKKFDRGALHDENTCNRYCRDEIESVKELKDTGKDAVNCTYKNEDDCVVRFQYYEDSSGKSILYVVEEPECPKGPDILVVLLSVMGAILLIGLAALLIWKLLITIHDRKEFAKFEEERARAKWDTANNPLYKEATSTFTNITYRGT

Take “Echistatin-Fc: echistatin fused via a 5 glycine linker to the C-terminus of the Fc portion of human IgG1 (SEQ ID NO: 109)”: in the test with human αvβ3, the “binding to human αvβ3” value is “binds with high affinity”. In the test with GPIIb/IIIa, the “inhibition of fibrinogen-ru binding to GPIIb/IIIa” value is recorded as “inhibition”.
As for YIGSRYIGSRYIGSR [(YIGSR)3], in the test on HT1080 cells, the IC100 was found to be 2.9 µM.
